Source: patent US20130156779A1 (GlaxoSmithKline, published 2013)
Like-named read-outs stand apart in the source and are kept apart here.

How the values were obtained:
Human HER3 receptor [1] = biological target: T1, Human HER3 receptor (human, UniProt P21860 20-1342); experiment: cell-based or functional assay
Human HER3 receptor [2] = biological target: T1, Human HER3 receptor; experiment: cell-based or functional assay; remark: listed apart in the source
Human HER3 receptor [3] = biological target: T1, Human HER3 receptor; experiment: cell-based or functional assay; remark: listed apart in the source
Human HER3 receptor [4] = biological target: T1, Human HER3 receptor; experiment: cell-based or functional assay; remark: listed apart in the source
[5] = biological target: T2, Full-length human HER3 extracellular domain (ECD) (human, UniProt P21860 20-643); experiment: affinity summary table, method not given
T2 construct: also called human HER3 ECD; HER-3 ECD full length

[6] = biological target: T3, Human HER3 ECD domain III (human, UniProt P21860 330-495); experiment: affinity summary table, method not given
T3 construct: also called D3; Domain 3

Human HER3 ECD domain II [7] = biological target: T4, Human HER3 ECD domain II (human, UniProt P21860 184-329); experiment: DELFIA, plate coated with HER3 Domain II 1ug/ml
T4 construct: also called D2; Domain 2
Description: (§1) Dissociation Enhanced Lanthanide Fluorescence Immunoassay (DELFIA) for detection of the anti-HER3 antibodies to HER3 extracellular domain (ECD) was used. The DELFIA procedures were as follows: white Maxisorp 96-well plates (Nunc #437796) were coated with 100 ul/well of 1 ug/ml HER-3 ECD full length or HER3Domain I, II, III and IV in 0.1M carbonate buffer pH 9.5 overnight at 4° C. These plates were blocked with casein in TBS (Thermo Scientific #37532 lot#JD121074). The neat hybridoma supernatant, or the purified anti-HER3 antibodies diluted in Perkin Elmer #4002-0010 Assay Buffer from 10 ug/ml (or 100 ug/ml) to 0.01 ug/ml, or the PK serum samples with a minimum of 3 dilutions (100 ul/well) were added to the plate. These samples were incubated for 2 hours at room temperature while on a plate shaker or overnight at 4° C. […] The plate was washed 4 times with tris-buffer plus 0.05% tween-20 (Perkin Elmer #4010-0010) on a BIOTEK™ plate washer following each antibody incubation step. 100 ul/well of DELFIA enhancement solution (Perkin Elmer 1244-105) was added for 5 minutes at room temperature. […] Antibody binding was recorded as europium counts per well.

[8] = biological target: T2, Full-length human HER3 extracellular …; experiment: BIACORE 2000 SPR, mAb captured, HER3 protein as analyte, 25 C
Description: (§2) Mouse monoclonal antibodies were analysed using rabbit anti-mouse (RAM) IgG (GE Healthcare BR-1008-38) covalently coupled to a BIACORE™ CM5 chip (GE HEalthcare BR-1000-14) by primary amine chemistry (NHS/EDC activated) (GE Healthcare amine coupling kit BR-1000-50). Chimeric and humanized competitor monoclonal antibodies were analyzed using anti-human, Fc specific monoclonal (GE Healthcare BR-1008-39) similarly coupled. Each chip was also prepared with a reference surface to which no capture reagent antibody is coupled. Sensorgrams for cycles run with differing analyte concentrations are acquired for kinetic analysis. A cycle consists of capturing the monoclonal on the surface, a short stabilization period with flowing run buffer followed by binding of a defined concentration of analyte (ECD or sub-domain protein). Injection of analyte for surface binding (3-4 minutes) yields the association part of curve. This is followed by buffer only flow (3-4 minutes) which allows recording of dissociation data.
(§3) The general method for affinity analysis is as follows. First, chips were prepared and tested for reasonance units (RU) captured for several monoclonal antibody concentrations. Kinetic cycles were then run in which monoclonal antibody was captured to a level of approximately 100RU, analyte protein was allowed to bind then dissociate and the surface was regenerated to remove all but covalently coupled protein. RAM chips were regenerated with capture kit supplied 100 mM glycine pH1.7 and anti-human chips with capture kit supplied 3M MgCl₂. […] Several buffer cycles were run prior to analyte protein to ensure cycle consistency and in some experiments a buffer cycle is used a “double reference[.]” Analytes used were human full length HER3 extra cellular domain (ECD), separate sub-domains of the extracellular portion of human HER3 (D1, D2, D3, D4), or combination HER3 domain proteins (D1-2 and D2-3).

[9] = biological target: T3, Human HER3 ECD domain III; experiment: as above
Description: as §2, §3

[10] = biological target: T5, Human HER3 ECD domain 2-3 protein (human, UniProt P21860 184-495); experiment: as above
T5 construct: also called D2-3; sub-domains 2-3
Description: as §2, §3

[11] = biological target: T6, Murine HER3 on B16 and B16F10 melanoma cells (murine, UniProt Q61526 20-1339); experiment: flow cytometry on B16F10 murine melanoma cells, antibody labelled with a Zenon APC kit [a]
T6 construct: whole, on cells
Excerpt: B16F10 ZENON™ labeling kits: [0530] Mouse IgG1 PE—Invitrogen Z25021 [0531] Mouse IgG1 APC—Invitrogen Z25051 [0532] Mouse IgG2b APC—Invitrogen Z25151 Method: Commercially available anti-human EGFR and HER2 antibodies were provided. A commercially available HER3 antibody represented by the provider to recognizes human HER3 was provided. The murine 15D5 antibody, murine 1D9 antibody (M5.1D9.1F5), murine 24H5 antibody (M5.24H5.C2) antibodies were also provided. These antibodies were labeled with either PE or APC using the ZENON™ labeling kits (Invitrogen). 5×10⁶ B 16, or B16F10, murine melanoma cells were added to flow cytometry tubes containing the labeled anti-HER3 antibodies. Cells and antibodies were incubated for 30 minutes on ice in the dark, washed and resuspended in FACS buffer. Cells were then analyzed on a FACSCANTO™ flow cytometer. Data analysis was performed using […]™ software, developed by BD Biosciences. Cell populations were gated using forward vs. side scatter and histograms of fluorescent intensities were generated.

[12] = biological target: T2, Full-length human HER3 extracellular …; experiment: BIACORE SPR, mAb captured on protein A, ECD as analyte, 25 C
Description: (§4) Protein A was immobilised on a CM5 chip by primary amine coupling to a level of ˜1300 resonance units (RU′s), humanized antibodies were then captured on this chip, All antibodies were captured to a similar level (100-200 RU's). […] Alternatively, the full-length, rat HER3 ECD or the full-length cynomolgus monkey ECD were passed over the chip at 10 nM, 5 nM, 2.5 nM, 1:25nM, 0.625 nM and 0.3125nM. An injection of buffer alone was used to double reference the binding curves as indicated in Example 1. Regeneration of this surface was achieved using 10 mM Glycine buffer pH 1.5. The binding data was fitted to the 1:1 model using BIACORE™ Evaluation software. Runs were carried out at 25° C. on a BIACORE™ T3000 using HBS-EP as running buffer.

[13] = biological target: T7, Full-length rat HER3 extracellular domain (ECD) (rat, UniProt Q62799 20-643); experiment: as above
T7 construct: extracellular domain; also called Rat HER3 ECD
Description: as §4

[14] = biological target: T2, Full-length human HER3 extracellular …; experiment: DELFIA (europium time-resolved fluorescence), plate coated with HER3 ECD Full Length 1ug/ml, antibody titrated 0.001-10 ug/ml
Description: as §1

Human HER3 ECD domain II [15] = biological target: T4, Human HER3 ECD domain II; experiment: DELFIA, plate coated with HER3 Domain II 1ug/ml; remark: listed apart in the source
[16] = biological target: T2, Full-length human HER3 extracellular …; experiment: DELFIA (europium time-resolved fluorescence), plate coated with HER3 ECD Full Length 1ug/ml, antibody titrated 0.001-10 ug/ml; remark: listed apart in the source

T2 sequence (P21860 20-643): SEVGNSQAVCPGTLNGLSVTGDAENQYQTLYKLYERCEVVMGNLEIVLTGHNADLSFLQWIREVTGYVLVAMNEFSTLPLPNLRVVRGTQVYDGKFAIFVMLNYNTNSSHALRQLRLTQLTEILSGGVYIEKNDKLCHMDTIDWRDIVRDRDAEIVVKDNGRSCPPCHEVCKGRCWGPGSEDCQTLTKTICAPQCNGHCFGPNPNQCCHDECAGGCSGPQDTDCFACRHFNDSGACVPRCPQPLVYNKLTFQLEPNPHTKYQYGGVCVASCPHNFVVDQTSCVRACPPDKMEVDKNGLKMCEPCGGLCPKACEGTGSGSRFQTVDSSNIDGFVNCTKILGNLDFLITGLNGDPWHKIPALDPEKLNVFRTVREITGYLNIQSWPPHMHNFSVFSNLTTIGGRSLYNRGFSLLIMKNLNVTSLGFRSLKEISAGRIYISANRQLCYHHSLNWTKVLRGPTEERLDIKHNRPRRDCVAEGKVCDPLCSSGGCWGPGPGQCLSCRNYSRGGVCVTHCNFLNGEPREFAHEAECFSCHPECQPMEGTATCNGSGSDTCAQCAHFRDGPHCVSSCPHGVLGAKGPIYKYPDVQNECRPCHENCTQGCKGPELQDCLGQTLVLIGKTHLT
T4 sequence (P21860 184-329): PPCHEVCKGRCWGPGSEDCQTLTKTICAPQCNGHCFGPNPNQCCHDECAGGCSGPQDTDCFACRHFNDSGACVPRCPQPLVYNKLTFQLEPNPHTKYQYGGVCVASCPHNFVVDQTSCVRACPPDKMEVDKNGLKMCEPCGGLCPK
T3 sequence (P21860 330-495): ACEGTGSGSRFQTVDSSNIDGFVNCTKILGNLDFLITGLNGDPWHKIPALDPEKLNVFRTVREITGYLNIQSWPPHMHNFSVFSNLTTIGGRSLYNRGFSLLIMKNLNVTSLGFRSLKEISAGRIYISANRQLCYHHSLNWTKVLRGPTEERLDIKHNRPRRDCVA
T1 sequence (P21860 20-1342 limits assumed): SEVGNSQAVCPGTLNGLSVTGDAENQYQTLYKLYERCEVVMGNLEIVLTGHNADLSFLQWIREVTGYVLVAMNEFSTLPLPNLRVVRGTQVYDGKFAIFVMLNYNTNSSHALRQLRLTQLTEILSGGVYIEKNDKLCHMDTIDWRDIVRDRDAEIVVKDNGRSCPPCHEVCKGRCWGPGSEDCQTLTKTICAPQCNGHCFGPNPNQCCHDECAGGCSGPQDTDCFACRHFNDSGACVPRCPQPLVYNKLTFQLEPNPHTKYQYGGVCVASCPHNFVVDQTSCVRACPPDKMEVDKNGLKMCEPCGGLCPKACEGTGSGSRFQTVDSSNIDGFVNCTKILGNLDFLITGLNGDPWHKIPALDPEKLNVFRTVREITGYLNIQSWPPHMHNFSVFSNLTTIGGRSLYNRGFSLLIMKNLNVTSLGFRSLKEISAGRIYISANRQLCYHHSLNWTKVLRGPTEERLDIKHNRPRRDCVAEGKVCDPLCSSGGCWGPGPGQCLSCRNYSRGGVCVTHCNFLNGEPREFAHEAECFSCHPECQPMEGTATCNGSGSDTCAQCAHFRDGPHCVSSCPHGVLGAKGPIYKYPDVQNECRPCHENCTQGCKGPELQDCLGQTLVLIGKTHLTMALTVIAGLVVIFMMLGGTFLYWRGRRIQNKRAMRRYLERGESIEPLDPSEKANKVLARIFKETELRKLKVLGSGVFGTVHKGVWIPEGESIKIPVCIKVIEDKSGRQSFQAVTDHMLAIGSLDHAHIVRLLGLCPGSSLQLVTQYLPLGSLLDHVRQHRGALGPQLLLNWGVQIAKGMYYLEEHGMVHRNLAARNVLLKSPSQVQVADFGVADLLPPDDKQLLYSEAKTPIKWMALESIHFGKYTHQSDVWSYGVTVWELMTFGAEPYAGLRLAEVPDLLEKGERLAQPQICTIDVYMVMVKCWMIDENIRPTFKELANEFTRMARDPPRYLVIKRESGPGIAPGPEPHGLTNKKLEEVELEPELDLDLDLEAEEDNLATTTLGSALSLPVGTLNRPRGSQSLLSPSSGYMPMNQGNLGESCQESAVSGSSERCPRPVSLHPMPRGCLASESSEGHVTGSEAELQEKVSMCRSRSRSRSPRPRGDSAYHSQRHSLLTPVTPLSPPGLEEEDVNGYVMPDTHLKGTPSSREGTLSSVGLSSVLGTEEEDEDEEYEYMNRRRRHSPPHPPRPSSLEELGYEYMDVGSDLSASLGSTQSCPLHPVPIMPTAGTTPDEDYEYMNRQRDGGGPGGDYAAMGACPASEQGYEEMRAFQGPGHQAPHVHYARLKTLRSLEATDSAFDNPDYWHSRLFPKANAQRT
T7 sequence (Q62799 20-643): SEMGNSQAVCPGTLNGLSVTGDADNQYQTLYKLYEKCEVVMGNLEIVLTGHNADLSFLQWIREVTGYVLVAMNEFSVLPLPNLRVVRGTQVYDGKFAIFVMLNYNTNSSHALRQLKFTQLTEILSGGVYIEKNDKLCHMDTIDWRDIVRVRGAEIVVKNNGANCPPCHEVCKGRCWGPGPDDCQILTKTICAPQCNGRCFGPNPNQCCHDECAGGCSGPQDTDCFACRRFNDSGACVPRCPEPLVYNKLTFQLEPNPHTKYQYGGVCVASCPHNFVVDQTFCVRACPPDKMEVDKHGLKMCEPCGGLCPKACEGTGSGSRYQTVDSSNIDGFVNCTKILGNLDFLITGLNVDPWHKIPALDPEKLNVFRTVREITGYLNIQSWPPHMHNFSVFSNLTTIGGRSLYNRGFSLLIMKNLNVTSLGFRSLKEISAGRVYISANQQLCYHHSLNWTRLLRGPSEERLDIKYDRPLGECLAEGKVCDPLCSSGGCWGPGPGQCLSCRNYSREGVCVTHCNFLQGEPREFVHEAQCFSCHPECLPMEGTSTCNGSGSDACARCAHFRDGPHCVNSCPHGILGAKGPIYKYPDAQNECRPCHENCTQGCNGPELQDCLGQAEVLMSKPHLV
T5 sequence (P21860 184-495): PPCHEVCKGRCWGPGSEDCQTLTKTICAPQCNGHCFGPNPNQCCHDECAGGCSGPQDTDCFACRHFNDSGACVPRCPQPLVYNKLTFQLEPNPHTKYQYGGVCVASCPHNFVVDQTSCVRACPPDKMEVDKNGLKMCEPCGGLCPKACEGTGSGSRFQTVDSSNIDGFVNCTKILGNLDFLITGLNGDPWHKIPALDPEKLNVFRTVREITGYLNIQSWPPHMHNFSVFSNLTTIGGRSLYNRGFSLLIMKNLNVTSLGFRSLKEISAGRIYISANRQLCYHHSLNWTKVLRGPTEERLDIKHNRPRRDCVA
T6 sequence (Q61526 20-1339, one chain of several): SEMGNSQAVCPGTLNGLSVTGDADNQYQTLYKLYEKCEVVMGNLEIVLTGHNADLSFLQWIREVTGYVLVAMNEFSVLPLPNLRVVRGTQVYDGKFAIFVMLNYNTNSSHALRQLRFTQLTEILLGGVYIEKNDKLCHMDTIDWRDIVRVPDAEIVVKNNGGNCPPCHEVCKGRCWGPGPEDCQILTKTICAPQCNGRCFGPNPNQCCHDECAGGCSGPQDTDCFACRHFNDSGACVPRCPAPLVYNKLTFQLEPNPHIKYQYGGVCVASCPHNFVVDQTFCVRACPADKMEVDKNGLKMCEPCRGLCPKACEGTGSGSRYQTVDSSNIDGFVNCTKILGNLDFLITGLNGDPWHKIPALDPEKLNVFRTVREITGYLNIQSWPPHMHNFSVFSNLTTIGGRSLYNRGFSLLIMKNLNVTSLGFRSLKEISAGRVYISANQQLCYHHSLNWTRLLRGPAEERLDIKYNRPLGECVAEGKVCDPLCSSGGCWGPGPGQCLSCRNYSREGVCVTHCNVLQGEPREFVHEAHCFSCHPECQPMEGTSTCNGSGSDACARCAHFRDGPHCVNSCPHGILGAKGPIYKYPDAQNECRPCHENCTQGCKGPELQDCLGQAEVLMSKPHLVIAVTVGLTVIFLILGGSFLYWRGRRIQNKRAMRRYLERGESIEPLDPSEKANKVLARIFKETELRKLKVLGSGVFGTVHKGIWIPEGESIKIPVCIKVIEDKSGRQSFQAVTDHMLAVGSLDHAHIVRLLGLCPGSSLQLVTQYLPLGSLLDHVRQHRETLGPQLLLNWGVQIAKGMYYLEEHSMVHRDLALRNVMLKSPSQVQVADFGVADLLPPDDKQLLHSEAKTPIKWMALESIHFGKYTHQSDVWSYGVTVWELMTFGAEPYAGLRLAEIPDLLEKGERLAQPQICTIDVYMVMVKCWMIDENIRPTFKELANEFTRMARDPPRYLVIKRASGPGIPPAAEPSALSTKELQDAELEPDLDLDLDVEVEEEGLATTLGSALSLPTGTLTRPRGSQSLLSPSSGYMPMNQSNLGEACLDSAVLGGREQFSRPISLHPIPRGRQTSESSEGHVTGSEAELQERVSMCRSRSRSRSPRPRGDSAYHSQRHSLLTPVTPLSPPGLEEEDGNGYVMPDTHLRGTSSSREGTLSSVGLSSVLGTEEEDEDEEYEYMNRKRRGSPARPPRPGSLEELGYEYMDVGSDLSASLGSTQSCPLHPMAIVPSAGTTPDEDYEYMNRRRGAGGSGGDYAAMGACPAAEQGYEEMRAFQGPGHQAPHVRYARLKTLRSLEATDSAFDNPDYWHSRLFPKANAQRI

Row | Phospho-HER3 ELISA IC50, heregulin induced, BxPC3 cells (Human HER3 receptor [1]) [µg/mL] | Phospho-HER3 ELISA IC50, heregulin induced, CHL-1 cells (Human HER3 receptor [1]) [µg/mL] | Phospho-HER3 ELISA IC50, heregulin induced, N87 cells (Human HER3 receptor [1]) [µg/mL] | Phospho-HER3 ELISA IC50, heregulin induced, SK-BR-3 cells (Human HER3 receptor [1]) [µg/mL] | Phospho-AKT ELISA IC50, heregulin induced, BxPC3 cells (Human HER3 receptor [2]) [µg/mL] | binding result (Human HER3 ECD domain II [7]) | Kd [12] [nM] | koff [12] [s⁻¹] | kon [12] [M⁻¹ s⁻¹] | Binder | further results
1 | 0.0068 | 0.0406 | 0.0204 | 0.0032 | 0.0151 | no binding (tested: 10 ug/ml) | – | – | – | Murine 1D9 antibody (M5.1D9.1F5) (antibody, IgG2b, V domains shown, Mouse monoclonal, IgG2b; also called m1D9) VH: QVQLQQPGAELVRPGTSVKLSCKASGYTFTSYWMHWVKQRPGQGLEWIGVIDPSDGYSHYNQKFKGKATLTVDTSSSTAYMQLSSLTSEDSAVYYCAGGLAGTLDYWGQGTTLTVSS VL: DVLMTQTPLSLPVSLGDQASISCRSSQSIVHSSGNTYLQWFLQKPGQSPKLLISKVSNRFSGVPDRFSGSGSGTDFTLRISRVEAEDLGLYYCFQGSHVPWTFGGGTKLEIK | Phospho-HER3 ELISA IC50, heregulin induced, BT-474 cells (Human HER3 receptor [1]): 0.0223 µg/mL; Phospho-HER3 ELISA IC50, heregulin induced, MCF7 cells (Human HER3 receptor [1]): 0.0104 µg/mL; Phospho-HER3 ELISA IC50, betacellulin induced, SK-BR-3 cells (Human HER3 receptor [3]): 0.0036 µg/mL; Phospho-HER3 ELISA IC50, epidermal growth factor induced, SK-BR-3 cells (Human HER3 receptor [3]): 0.003 µg/mL; Phospho-HER3 ELISA IC50, heregulin induced, SK-BR-3 cells (Human HER3 receptor [3]): 0.0032 µg/mL; Phospho-HER3 … IC50, heregulin induced, CHO EGFR + HER3 (Human HER3 receptor [4]): 0.0435 µg/mL; Phospho-HER3 … IC50, heregulin induced, CHO HER4 + HER3 (Human HER3 receptor [4]): 0.13 µg/mL; Kd [5]: ~1 nM; Kd [6]: 0.39 nM; Kd [8]: 0.82 nM; kon [8]: 355000 M⁻¹ s⁻¹; Kd [9]: 0.38 nM; kon [9]: 2.54e+06 M⁻¹ s⁻¹; Kd [10]: 0.47 nM; kon [10]: 893000 M⁻¹ s⁻¹; binding result [11]: binds
2 | 0.0056 | 0.0282 | 0.0175 | 0.0034 | 0.0228 | no binding (tested: 10 ug/ml) | 2.01 | 0.00223 | 1.11e+06 | Humanized 1D9 POTELLIGENT™ antibody (antibody, human IgG1, kappa, non-fucosylated glycans on the marked N* residue, Same chains as the humanized 1D9 antibody, expressed in FUT8- cells; also called humanized 1D9 H6L2 POTELLIGENT antibody) heavy: not shown light: DIQMTQSPSSLSASVGDRVTITCRSSQSIVHSSGNTYLQWFQQKPGKAPKLLIYKVSNRFSGVPSRFSGSGSGTDFTLTISSLQPEDFAVYYCFQGSHVPWTFGQGTKLEIKRTVAAPSVFIFPPSDEQLKSGTASVVCLLNNFYPREAKVQWKVDNALQSGNSQESVTEQDSKDSTYSLSSTLTLSKADYEKHKVYACEVTHQGLSSPVTKSFNRGEC | Kd [13]: 3.37 nM; koff [13]: 0.0011 s⁻¹; kon [13]: 326000 M⁻¹ s⁻¹; EC50 (read off the curve) [14]: ~0.03 µg/mL
3 | 0.0116 | 0.0365 | 0.0218 | 0.0036 | 0.0244 | – | 4.5 | 0.00184 | 410000 | Humanized 1D9 antibody (antibody, human IgG1, kappa, Expressed in FUT8+ cells; also called HZ1D9; H6L2) heavy: not shown light: DIQMTQSPSSLSASVGDRVTITCRSSQSIVHSSGNTYLQWFQQKPGKAPKLLIYKVSNRFSGVPSRFSGSGSGTDFTLTISSLQPEDFAVYYCFQGSHVPWTFGQGTKLEIKRTVAAPSVFIFPPSDEQLKSGTASVVCLLNNFYPREAKVQWKVDNALQSGNSQESVTEQDSKDSTYSLSSTLTLSKADYEKHKVYACEVTHQGLSSPVTKSFNRGEC | binding result (Human HER3 ECD domain II [15]): no binding (tested: 10 ug/ml); EC50 (read off the curve) [16]: ~0.04 µg/mL
